Assay results from patent publication US6586559B2, “Polyamide oligomers” (Inex Pharmaceuticals Corporation, priority 1997, dated 2003).

Test: Encapsulation of cationic peptide IB510 in liposomes (extrusion, BioGel column, LSC/HPLC)
Type: physicochemical
Conditions: ATTA8-DSPE versus PEG-PE
Method: Lipid films (total of 100 mg of lipid) were prepared by dissolving appropriate quantities of individual lipids in 200 to 500 μL of chloroform, mixing the lipids, then removing the chloroform under high vacuum. Specifically, prepared lipid films were sphingomyelin/cholesterol/PEG-PE (50/45/5 molar ratios; prepared from 53.2 mg sphingomyelin, 26 mg cholesterol and 20 mg PEG-PE) and sphingomyelin/cholesterol/ATTA8-DSPE (50/45/5 molar ratios; prepared from 53.2 mg sphingomyelin, 26 mg cholesterol and 20 mg ATTA8-DSPE) and contained 1 μCi of 3H-cholesterylhexadecylether as a radiolabelled tracer. […] 5 μl were removed for phosphate assay to quantify the phospholipid and for liquid scintillation counting (LSC). […]
Aliquots of 200-400 μL of the large unilamellar vesicles containing IB510 were passed over a 20 cm×1 cm BioGel A-15 m (50-100 mesh) column pre-equilibrated in 150 mM NaCl and 20 mM Hepes (pH 7.5). […] The concentrations of liposomes and peptide were quantified by LSC and HPLC, respectively. Encapsulation efficiency was calculated from the post-column peptide/lipid ratio divided by the precolumn peptide/lipid ratio. […]

| Substance | encapsulation efficiency (comparison in words) |
| --- | --- |
| N-(ω-azido-octa-(14′-amino-3′,6′,9′,12′-tetraoxatetradecanoyl))-1,2-distearoyl-sn-glycero-3-phosphoethanolamine [ATTA8-DSPE] | superior to PEG-PE |
| Octa-(14-amino-3,6,9,12-tetraoxatetradecanoic acid) [ATTA8] | superior to PEG |
